The results in this text go back to publication PMC5013389, “Competition between members of the tribbles pseudokinase protein family shapes their interactions with mitogen activated protein kinase pathways” (Scientific Reports, 2016).

The target of the experiment is T1, MKK4-V1 (full length MKK4 fused to the V1 fragment of Venus YFP) (UniProt P45985 1-399).
T1 construct: source: HeLa, transfected, in live cells; not shown: Venus YFP fragment V1, C-terminal, kept
T1 sequence (looked up): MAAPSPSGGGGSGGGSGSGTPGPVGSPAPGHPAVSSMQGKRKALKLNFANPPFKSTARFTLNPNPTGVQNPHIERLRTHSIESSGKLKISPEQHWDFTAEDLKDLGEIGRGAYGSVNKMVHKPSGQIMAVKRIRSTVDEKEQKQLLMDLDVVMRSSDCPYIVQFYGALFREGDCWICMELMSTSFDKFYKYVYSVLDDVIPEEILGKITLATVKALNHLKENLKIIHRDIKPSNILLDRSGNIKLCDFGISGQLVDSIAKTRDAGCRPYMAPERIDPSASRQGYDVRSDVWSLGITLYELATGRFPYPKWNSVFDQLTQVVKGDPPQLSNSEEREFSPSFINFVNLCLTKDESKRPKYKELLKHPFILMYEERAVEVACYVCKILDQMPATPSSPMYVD
The experiment is described as follows: split reporter (BiFC, NanoBiT); competitive PCA in HeLa cells: MKK-V1 and TRIB-V2 co-transfected with an increasing dose of an untagged competitor plasmid (ERK, p38 or TRIB); mean fluorescence by flow cytometry 24 h after transfection; doses are plasmid amounts relative to TRIB-V2. The conditions noted are these: partners not purified.

B1: untagged TRIB-3 (natural protein, UniProt Q96RU7 1-358, looked up)
chain: MRATPLAAPAGSLSRKKRLELDDNLDTERPVQKRARSGPQPRLPPCLLPLSPPTAPDRATAVATASRLGPYVLLEPEEGGRAYQALHCPTGTEYTCKVYPVQEALAVLEPYARLPPHKHVARPTEVLAGTQLLYAFFTRTHGDMHSLVRSRHRIPEPEAAVLFRQMATALAHCHQHGLVLRDLKLCRFVFADRERKKLVLENLEDSCVLTGPDDSLWDKHACPAYVGPEILSSRASYSGKAADVWSLGVALFTMLAGHYPFQDSEPVLLFGKIRRGAYALPAGLSAPARCLVRCLLRREPAERLTATGILLHPWLRQDPMPLAPTRSHLWEAAQVVPDGLGLDEAREEEGDREVVLYG
notes: TRIB3, untagged expression plasmid; also called unlabelled tribbles; untagged tribbles; source: HeLa, transfected, in live cells
Turning to B1, the “fold affinity to MKK4 relative to TRIB2” value was about 15 fold.
